The values that follow come from publication PMC6044691 (ACS Omega, 2017).

The series “AUC” deals with the molecule itself. Kind of series: AUC.
The series “crystal structure” deals with the molecule itself. Briefly: crystal structure.

Numbering of substitutions follows the chain as printed. Numbers in names are those of the source.

B1: N-terminal truncated Z,Z-farnesyl diphosphate synthase (ΔzFPS) (enzyme, Solanum habrochaites, UniProt B8XA40 71-303, looked up)
chain: MLDEALMPKHIALIMDGNRRWAKDKGLDVSEGHKHLFPKLKEICDISSKLGIQVITAFAFSTENWKRAKGEVDFLMQMFEELYDEFSRSGVRVSIIGCKTDLPMTLQKCIALTEETTKGNKGLHLVIALNYGGYYDILQATKSIVNKAMNGLLDVEDINKNLFDQELESKCPNPDLLIRTGGDQRVSNFLLWQLAYTEFYFTKTLFPDFGEEDLKEAIINFQQRHRRFGGHTY
On to B1, for which, in the series “AUC”, the “stoichiometry N” value was found to be 2.

B2: ΔzFPS-H103Y mutant (enzyme, Solanum habrochaites, UniProt B8XA40 71-303, looked up)
chain: B1 chain with H33Y
In the case of B2, the binding result in the series “crystal structure” is reported as “binds”.

The stoichiometry N is the number of molecules, sites or subunits per partner or assembly.
